Assay results as given in US20100173324A1.

Molecular target: human CD27 expressed on CHO/DG44 cells (normal O-linked sugar chain) (human) (UniProt P26842)
Experiment: flow cytometry on CD27/DG44-4 cells

Sequence of UniProt P26842 (P26842 20-260 H233R limits assumed): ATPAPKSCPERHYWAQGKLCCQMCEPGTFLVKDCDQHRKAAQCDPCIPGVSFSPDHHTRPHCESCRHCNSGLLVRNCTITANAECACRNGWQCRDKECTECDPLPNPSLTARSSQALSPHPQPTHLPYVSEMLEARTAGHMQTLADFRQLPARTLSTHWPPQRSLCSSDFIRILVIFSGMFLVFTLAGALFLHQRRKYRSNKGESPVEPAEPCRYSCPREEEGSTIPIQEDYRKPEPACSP

EC50 (read off the curve): 0.2 µg/mL
Substance: Anti-CD27 Antibody (O323)
